From a protein production outcome set (Wang et al. 2014)

Experiment: label from the status in PepcDB records

**Q.** Which protein production does the source give for “MRLTARSEPSSAPFPSGTGRQIGADCNGPSACQALQFTPFCPSRDNEMSDWSLDQARKTYSIPHWADGYFDVNDAGHVVVRPTADGPAVSLPEVVDAARAAGAKLPLLVRFPDILGQRLGKLQAAFAQAQADWDYAGGYTAVYPIKVNQHRGVAGTLASHHGEGFGLEAGSKPELMAVLALSRPGGLIVCNGYKDREYIRLALIGRKLGLQTFIVIEKPSELNLVLEEARALDVKPGLGVRMRLASLGAGKWQNSGGDKAKFGLSPRQVLDLWKSLRDTEYADSLNLLHFHMGSQISNVRDIANGMREATRYFVELSRLGAKISHVDVGGGLGIDYEGTRSRSYCSINYGLHSYASNIVQPLASACEEHGLPPPRIVTECGRAMTAHHAVLIANVSEVEQAPEGRVPDAHDDEPAAIRHLREIHDELDVRPAVELFQEAQHFHAEGLSAYALGQIDLTHRARIDDLFYAIAHGVRARLSFDEKSHRPVLDELNERLVDKYFVNFSVFESIPDVWAIDQVFPIVPIERLNEAPQRRGIIADMTCDSDGMVKTYVENESLDSSLPLHGLNPGESYRIGFFLVGAYQEILGDIHNLFGDTDAVEVAVDGTGYRIAQQRRGDTTDVMLDYVGYQLDTLRATYAERIAAAQLPPERAQELHDALEAGLTGYTYLSDEPLG” here?
**A.** The protein production was “failed”.

**Q.** Which protein production does the source give for “MRLTVDQALAQAIAAHRSGQLQDAERLYRAILDAAPGHADANHNLGVLAVGVGKPQAGLSFLKAALEINPAQGQFWVSYIDALIAAGLPAAARDHLEQAKRRGLTGDAVERLEKRLDPASQPPQALLDSVVAQYRSGNLAAAESQAHALTLSFPNHELGWKVLGAVFSVTGRSEESLASMRQALSLNPQDAETFKNLAILLLKLKRAEEAEAACRSALALAPDYPQVHLTLGNALIDLARAAEAEESFRQAIRLKPDYSEAHCNLGCALKLSGRLTEAETCFRRAIQLNPADAQAHNNLGDVFKDLGRFADAEAFYRAAIGLKPEYLEAHSNLLLCLNYFETSSPDTYLAEAKQYGSVASAAATPKFSAWSIQPEPRRLRVGFISGDLNSHPVGYFSESVFQHLDRDRFELFAFPTTPKTDALTSRISPFFAGWCPIFGMDDHAAATAIHTQGVHVLVDLSGHTADNRLPVFAFRPAPVQASWLGYFATTGLPEMDYFLGDRYMVTETEQQRFTETLWRLPETWLCLAPHERSIPINPPPVLTNGFMTFGCLGNLSKMNGEVVALWSQILRAVPESKLLLKAKPFVDAQVVADIQARFAREGVSSDRLILEGPSSRAEYFETYNRIDLVLDTFPYPGGTTSVDALWMGVPVLTLAGDRFLARLGESIARNAGQSAWVARDRADYLAKAVAFASVRDVAHDRPALRRSVLTTPLFDPERFARDFGDTLWGMWSQGRSHPLRKDAPCRS” here?
**A.** Its protein production is “failed”.

**Q.** Which protein production does the source give for “MAAGKTHDKITVIMTPFIASFFLFINMIFLEDLGSSLAFTILGVSIYMFGGYMFSGDLDIKSREFRRWGYLKFIWIPYQKLFEHRSVFTHGFILGPIIRILYVSIIPITISSLLYSFSIINISTPEMLKLVFNFILKNKILFGNMALALFLGSGLHTITDMIYSYFKRKFSYKKRKSSKKYSRSKRPSRRAA” here?
**A.** The protein production was “failed”.

**Q.** For “SARHFGMALAPWDVMGGGRFQSKKAMEERRKNGEGIRSFVGASEQTDAEIKISEALAKIAEEHGTESVTAIAIAYVRSKAKNFFPSVEGGKIEDLKENIKALSIDLTPDNIKYLESIVPFDIGFPNNFIVLNSLTQKYGTNNV”, which protein production is on record?
**A.** The protein production was “not failed”.

**Q.** With “MAYGTYRGLFAPEVAGPLAKLLVLLLVGYGLYQNRHLKSLYLVLLGLLLNALVIFANGGHMPVSPTALHRAGIGEFADLLRDKGDAVHALLDEKTRLPFLGDVIPLPPLRKVVSPGDLFILLGIVGVVVEGALKGGVRLRRRALALRLLLYLAFVLALLALRG” as the sequence, how does the protein production read?
**A.** Its protein production is “failed”.

**Q.** Which protein production does the source give for “MSQLLKLKSQYDDECTVTRHYEGKGRNAGRLGAVGCKNRHGEFRIGSGFKDKDRDNPPKIGTLITYRYRGFTRKGTPKFATFVRVRTLEHHHHHH” here?
**A.** Its protein production is “failed”.

**Q.** For “MMKKHMYRLGLFKALTLALLVLLSAFVPSVLANQSRKPANLDGTTTLQSILSSSHRSEENRQRDKYRHPTQTLSFFGLRPDMTVVELWPGSGWYTEILAPYLAAKGQLIVTNFAPNDSKIPTVVFQQKLATAFQQKLEANKEVFGKIRVALINPPQELTLAPDNSVDMVVTFRNIHNWVNAGYAEQVYAAAYKALKPGGILGVEEHRAKPGISLQESIKTGYMSEDGVIAAVEKVGFKLVGKSEINANPQDTKDYPGGVWALPPTLRQGQKDRQRLVAIGESDRMTLKFIKPEANINSGSNAK”, which protein production is on record?
**A.** The protein production was “failed”.
